The experiment deals with S protein of SARS-CoV (Urbani strain) on virus (SARS-CoV (Urbani strain)) (UniProt P59594). Description: cell-based or functional assay.

For the substance 80R IgG1 (antibody), the micro-neutralization assay: fold more effective than 80R scFv on a molar basis is 20 fold.

These data come from patent US20050249739A1.
